Numbering of substitutions follows the chain as printed.
Columns and labels:
Test in all cases: cleavage_in_vitro
[1] = target: T1, HindIII (Haemophilus influenzae Rd) (UniProt P43870); details: NEB2, 37 C
T1 sequence: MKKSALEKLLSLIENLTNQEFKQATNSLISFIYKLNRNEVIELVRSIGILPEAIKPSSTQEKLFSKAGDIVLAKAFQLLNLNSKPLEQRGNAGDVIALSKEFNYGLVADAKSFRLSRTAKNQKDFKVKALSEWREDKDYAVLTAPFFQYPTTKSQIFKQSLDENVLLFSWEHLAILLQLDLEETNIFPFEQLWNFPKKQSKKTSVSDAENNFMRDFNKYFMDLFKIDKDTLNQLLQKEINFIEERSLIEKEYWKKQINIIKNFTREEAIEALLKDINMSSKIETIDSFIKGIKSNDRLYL

[2] = test system: T2, SphI (Streptomyces phaeochromogenes); details: NEB1, 37 C
T2 sequence: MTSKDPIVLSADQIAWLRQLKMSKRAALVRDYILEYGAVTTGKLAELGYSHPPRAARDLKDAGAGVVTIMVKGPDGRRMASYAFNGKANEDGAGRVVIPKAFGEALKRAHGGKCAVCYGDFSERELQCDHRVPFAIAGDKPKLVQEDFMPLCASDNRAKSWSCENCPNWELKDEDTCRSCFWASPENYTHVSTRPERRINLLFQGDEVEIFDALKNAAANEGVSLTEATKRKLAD

[3] = test system: BstXI-HF N65A; details: NEB2, 55 C
[4] = test system: T3, BsmBI-HF N185Y/R232A (Bacillus stearothermophilus); details: NEB2, 55 C
T3 sequence: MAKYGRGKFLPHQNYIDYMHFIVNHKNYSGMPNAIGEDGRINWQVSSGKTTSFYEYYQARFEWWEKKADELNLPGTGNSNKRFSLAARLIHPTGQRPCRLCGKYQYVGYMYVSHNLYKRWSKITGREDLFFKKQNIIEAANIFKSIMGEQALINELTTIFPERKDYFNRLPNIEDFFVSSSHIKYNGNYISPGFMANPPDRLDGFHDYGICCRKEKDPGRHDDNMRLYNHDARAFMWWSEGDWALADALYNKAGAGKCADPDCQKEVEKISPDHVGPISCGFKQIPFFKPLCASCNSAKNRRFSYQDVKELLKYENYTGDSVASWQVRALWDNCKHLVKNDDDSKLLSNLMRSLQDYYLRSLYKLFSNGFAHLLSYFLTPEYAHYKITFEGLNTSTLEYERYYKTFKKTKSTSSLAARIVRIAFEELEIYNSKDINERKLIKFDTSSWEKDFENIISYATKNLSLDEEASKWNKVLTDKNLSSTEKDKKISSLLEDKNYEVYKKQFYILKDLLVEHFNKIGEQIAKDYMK

[5] = test system: T4, BsmBI (Bacillus stearothermophilus); details: NEB3, 55 C
T4 sequence: T3 sequence with Y185N, A232R

[6] = target: EcoRI (Escherichia coli RY13) (UniProt P00642); details: NEB3, 37 C
[7] = target: T5, BamHI (Bacillus amyloliquefaciens) (UniProt P23940); details: NEB3, 37 C
T5 sequence: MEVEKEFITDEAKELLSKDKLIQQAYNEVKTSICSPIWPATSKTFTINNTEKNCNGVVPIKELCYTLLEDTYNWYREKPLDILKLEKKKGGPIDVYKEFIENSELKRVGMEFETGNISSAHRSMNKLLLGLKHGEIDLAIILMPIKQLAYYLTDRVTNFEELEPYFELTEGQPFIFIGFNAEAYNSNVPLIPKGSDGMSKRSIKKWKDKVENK

Sequence of EcoRI (Escherichia coli RY13) (P00642 whole entry): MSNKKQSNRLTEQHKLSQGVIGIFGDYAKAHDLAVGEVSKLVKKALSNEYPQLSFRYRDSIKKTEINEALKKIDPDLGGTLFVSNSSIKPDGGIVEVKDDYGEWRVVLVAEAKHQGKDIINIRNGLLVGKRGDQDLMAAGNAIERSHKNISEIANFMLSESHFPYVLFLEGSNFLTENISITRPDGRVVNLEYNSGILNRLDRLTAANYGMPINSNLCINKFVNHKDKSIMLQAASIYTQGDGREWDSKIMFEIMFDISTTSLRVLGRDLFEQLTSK

In the case of lambda phage DNA, the activity (fidelity index) [1] is reported as 250, the activity (fidelity index) [2] is reported as 64 and the activity (fidelity index) [3] is reported as > 250. For the same substance, the activity (fidelity index) [4] was > 500, the activity (fidelity index) [5] was 120 and the activity (fidelity index) [6] was 250. For the same substance, the activity (fidelity index) [7] was 32.

Reference: patent US20130122568
